Drawing on article PMC4358367, “Structural basis of diverse membrane target recognitions by ankyrins” (eLife, 2014), this text covers Kd for one molecule.

Positions count from the first letter of the chain named. Where no end group is shown, it is not given here.

Assay in all cases: FP
Experiment [1] addresses T1, AnkB_repeats site 3 mutant 'LFL' (Leu366, Phe399 and Leu432 to Gln) (human, UniProt Q01484 28-873, Leu366 substituted with Gln | Phe399 substituted with Gln | Leu432 substituted …).
T1 sequence: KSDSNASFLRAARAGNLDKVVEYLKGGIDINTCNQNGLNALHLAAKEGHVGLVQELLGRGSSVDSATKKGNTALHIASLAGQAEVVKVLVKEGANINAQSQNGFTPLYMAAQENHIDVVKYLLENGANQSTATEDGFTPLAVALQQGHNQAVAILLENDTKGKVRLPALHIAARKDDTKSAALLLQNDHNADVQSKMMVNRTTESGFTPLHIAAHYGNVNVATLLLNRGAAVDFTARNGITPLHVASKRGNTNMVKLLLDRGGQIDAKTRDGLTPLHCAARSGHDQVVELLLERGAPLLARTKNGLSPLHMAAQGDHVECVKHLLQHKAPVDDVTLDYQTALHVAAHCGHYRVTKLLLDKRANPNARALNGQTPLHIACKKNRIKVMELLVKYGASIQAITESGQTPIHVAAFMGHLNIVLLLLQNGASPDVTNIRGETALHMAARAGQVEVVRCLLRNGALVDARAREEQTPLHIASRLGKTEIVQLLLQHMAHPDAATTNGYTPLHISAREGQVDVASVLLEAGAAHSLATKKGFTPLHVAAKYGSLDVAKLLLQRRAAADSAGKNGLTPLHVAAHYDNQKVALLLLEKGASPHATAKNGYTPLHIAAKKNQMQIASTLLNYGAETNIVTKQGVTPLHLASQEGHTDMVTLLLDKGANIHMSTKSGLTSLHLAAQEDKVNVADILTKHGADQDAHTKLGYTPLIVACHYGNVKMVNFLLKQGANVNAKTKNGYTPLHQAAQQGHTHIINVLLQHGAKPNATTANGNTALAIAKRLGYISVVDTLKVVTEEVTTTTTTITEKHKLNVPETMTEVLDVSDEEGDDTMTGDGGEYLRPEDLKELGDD

Experiment [2] deals with T2, AnkB_repeats site 2 mutant 'IL' (Ile267 and Leu300 to Gln) (human, UniProt Q01484 28-873, Ile267 substituted with Gln | Leu300 substituted with Gln).
T2 sequence: T1 sequence with I240Q, L273Q, Q339L, Q372F, Q405L

The target of experiment [3] is T3, AnkB_repeats (24 ANK repeats of human 220 kDa ankyrin-B, residues 28–873) (human, UniProt Q01484 28-873).
T3 chain: T1 sequence with Q339L, Q372F, Q405L

B1: Cav1.3 peptide (mouse Cav1.3 residues 2134–2166), FITC-labeled (peptide, UniProt Q99246-4 2134-2166, looked up)
peptide: ELQDFGPGYSDEEPDPGREEEDLADEMICITTL
modifications: also: FITC label (position not given here)
notes: voltage-gated calcium channel Cav1.3, mouse, residues 2134-2166; also called voltage-gated calcium channel Cav1.3 peptide; source: synthetic peptide (commercially synthesized)
In the case of B1, the Kd – broadly, the free concentration of one partner at which half of the binding sites on the other are occupied at equilibrium, for simple one-to-one binding – in experiment [1] is 4 µM; in experiment [2] it was 8.2 µM; in experiment [3], 3.3 µM.
